The data set in a line: soluble fraction after stress (log2 fold change); higher = more stays soluble; pooled small domains, quantitative proteomics. Conditions: stress: 75 degC.

The source of these data is the domain aggregation screens of Martell et al. (2025).
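Also: 20 min heating vs room temperature control held 20 min.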

Take “HMAENPAYTKGVVNRLYKIRATPYYSYSYNVDQKTYEGRGKQYGEYENLHIGDTITVYYQRSNPSNSEA”: the “soluble fraction (log2)” value was -0.288.

As to “HMAEPIEKIIIEGNQRIEALTIQSYLLLRVGEPFNRQLMNQTLKSLYATGYFSDVAVTRVSSSLLVK”, the “soluble fraction (log2)” value turned out to be 0.153.

Turning to “HMAEPLEIGDTVRIIDGFYGGEIGVISELVNPDAKNAEFEQVRVRLDQDTELALPIHNVERVRL”, the “soluble fraction (log2)” value was 0.498.

Consider “HMAEPRVQEVYFEFDGKQVEAGQVVSLIEQAYKNEGHQIGRIKDLKVYINSEEGKAYYVINGDDGEGKYIE”, for which the “soluble fraction (log2)” value is 0.0727.

“HMAESLHVTAAALFEGRAMLGIDGSRRLLRVGETSPEGVKLVSATAREAVIEIDGRRQTLAPGRDT”: the “soluble fraction (log2)” value was -0.133.

For “HMAESSLPKMPRDESKYIYHSVQPGETVYSLSKRYSVSESDIVKSNPGIDITKLSLGLEVAIPRI”, the “soluble fraction (log2)” value worked out at 0.691.

As for “HMAEVAFEEQNIEQISNLLLRIQAIFAELMTALDKEKGGEIADNLERLYVFFLEKLGDANVRKDPAP”, the “soluble fraction (log2)” value turned out to be 0.585.

For “HMAEVHVDGVTYQFSNPEQAVKFARKIAKELGLKVEVHGETVHVK”, the “soluble fraction (log2)” value was -0.0253.

For the sequence “HMAEVTLTVREQEVLHLLARGMSNGEMAAHLYVEPTTIKYHLTGLLQKTGSRDRLQAVLWGIRAGMVH”, the “soluble fraction (log2)” value is -2.81.

Take “HMAEWIYGKNVVKQSIEEGMVLKLILQRKEDPLFVLAQEKQIPVEILDRHKMTSLVKSDRHQGVAAQI”: the “soluble fraction (log2)” value was -0.742.

As for “HMAFEDYAGEYRSAADFAESLHEDTGTEIPESLRYYIDWQALARDMALNGEIMVFQTGFDEVHIFWS”, the “soluble fraction (log2)” value is -0.63.

Turning to “HMAFEITSAERTRLEDIARKGLTAYTAEWKQLPASEKKALNKTGLQDFLKSMAADADSAREEEA”, the “soluble fraction (log2)” value was found to be 0.0228.

Take “HMAFKEQLKAARLAKGYTQEQLATAIGVAKSTFTGYEKGNSEPNMLTIKKLMEILEVDANYLWY”: the “soluble fraction (log2)” value was -2.91.

For the sequence “HMAFRWQQIADTITSMIANGSYPRGSRLPTEAALADSFGVNRHTVRRAVAALRDTGLVQPRQGAGVFVIG”, the “soluble fraction (log2)” value is -2.02.

With “HMAFYQDIAVDLRKQIIDGVYPKNSRLPNQAELAKLYTTSRVTIQKALKILQIEGLIEGRQGSGSYVKGP”, the “soluble fraction (log2)” value is -2.11.

“HMAGHKVDFSELPARSQAFIGKNFPTEMVKNVEMERKDAKDHYTVLLSNGTKVMFDGTSGELTGV”: the “soluble fraction (log2)” value came to 0.0762.

For the sequence “HMAGISQGLAENVERRITTLLREQKEVPVHDIDFPGISRETVGQVLHQMVQEEKLLLDDGMISLSPNQ”, the “soluble fraction (log2)” value worked out at 0.181.

With “HMAGPAGASEVANARDGDDETPLHMAARGGYPGIVRMLLAAGAKADAKSAAGLFPWNYAEDGSELHALLPR”, the “soluble fraction (log2)” value came out at 0.139.

As for “HMAGPTIVTNSQGVPNYHLVKRGDTVSQIAQRYGLNYRQIGAINNLDSKYTIYSGQWLKLWQG”, the “soluble fraction (log2)” value was -1.37.

As to “HMAGQWQQDQNGWKYKTDNGDHMKNTWYQDSDSRWYYFGPDGYMKSSTMTPDGYVVGSDGAWIE”, the “soluble fraction (log2)” value is -0.662.

Take “HMAGSGDLNAKYLASIPAPMKAKILKAVANHYGVSISEFEEEVTDKDAEALYEYIPTRSMAVQVLRDMKG”: the “soluble fraction (log2)” value was -0.829.

In the case of “HMAGSGLPVPRFVSLADDRVNARAGPGFRFPINWVYLRKGFPVEVVDEFGPWRRIRDIDGVAAWIHLSMLS”, the “soluble fraction (log2)” value is -0.654.

Turning to “HMAGTAFPVRIMLKGIDRIGLLNEITGYISVAMGVNMRKLNLSTEDGIFEGYIDMLVHDRTVLESMIDNL”, the “soluble fraction (log2)” value is -0.381.

On to “HMAGTELASIKEIQSLVDRSEEALSARNFFWPKDKSESMLLSFRNMFSRLKLTKMDVQIFHGIFKVMEKS”, for which the “soluble fraction (log2)” value was determined as 0.24.

Regarding “HMAGVSVTSLTTFWRLAADTPDTPSGADDPSGWSRTEPSIPDGYEGKLYRTIRTIMSDGTATWTSPD”, the “soluble fraction (log2)” value was -0.728.

Regarding “HMAGYDTYMVDRDAELLPWLLETLQRESRSKVKATLQGNGIKVNGKRVTQFNYPLKAGMKVSVSKSK”, the “soluble fraction (log2)” value was determined as 0.0362.

Turning to “HMAHILDLMELKQILRLHMDGLSNRRISDTLGIHRNTINSYVSQFKASKHGIEELLKLSDYELAQLFP”, the “soluble fraction (log2)” value was -2.49.

In the case of “HMAHRYQQIADDLGRRVEAGEFAAGRLLPSEATLSGQYKASRVTVRKALEALRTDGLVESRQGFGWFVAAD”, the “soluble fraction (log2)” value was -0.405.

Regarding “HMAIADQPISAEHFDKLRQVLNSNTQETIASAKQHWASISNNAEFTNENVTRTLLEEMLAFIKSAS”, the “soluble fraction (log2)” value amounted to 0.415.

Regarding “HMAIDVQELARTRLRSLRTTLGYSLDELAARTHLSPSTISRLETGKRSLSLDVVVPLAQALHVSLDVLFEA”, the “soluble fraction (log2)” value was -2.67.

Take “HMAIEGIFEKYQRRSDQLIPILQDVQKEFGYIAPESVRHISRYLRISENQIFGVSSFYAQFRFT”: the “soluble fraction (log2)” value is -0.228.

Take “HMAIGTDPETGISVVADGTDFIWTRSGATSTIFLRLDSENSYILNVKQGDFEVIDYELGEGQENAINIDQS”: the “soluble fraction (log2)” value was determined as 0.0422.

With “HMAIPEVDPAKQGVSATQLAALDALAHRNAGEGRVAGMVNVVIRNGEIVYYKATGPRHIDGGAPLKSTDLF”, the “soluble fraction (log2)” value is -0.148.

Consider “HMAIQGVRLYERTLETGDPWLDRPLSTLSTGTRLIILVRRGGDVLIPKGDTVLLAGDTLVINDS”, for which the “soluble fraction (log2)” value was -3.85.

With “HMAIRPDAAVSSHAVKQRLQSLIRAEDPAAPLSDEALRLALSALGIGVSRRAVAKYRAEMGIPSSSQRKK”, the “soluble fraction (log2)” value was -0.492.

In the case of “HMAISQYGSQSDEVTKIQTRLKAWGYFDGPVTAYYGSQTTEAVKKFQQKHGLSATGVADAKTLELIGLP”, the “soluble fraction (log2)” value is -0.397.

On to “HMAITLEQFLSVNPHIRNNLYGNAVELVKDKDFSVLSDKLKASSKWANEPSLYKILSHYDEIIS”, for which the “soluble fraction (log2)” value is -0.335.

On to “HMAKDSQSADVLQAIFDGSKVLNGLALDQDMRWDLINGLVMSGRLGVEAIEAEAAKLAKLVEELEFR”, for which the “soluble fraction (log2)” value is -0.976.

“HMAKETLRANIKDYIQKQIASGVYRPGDRIVETQLAREMNVSQAPVREAILELVSLGLLEERPYSGHMVRQ”: the “soluble fraction (log2)” value is 0.0046.

For “HMAKIKVFELKNQINSLIKNKIESKDIIDFIETNFGVKKSHSSALEENEANFIKNYFVHADKA”, the “soluble fraction (log2)” value was -0.264.

With “HMAKIPASTVVEIDGAPVVVAVRVNARARSYRLSIPHSGGPLLTLPPHGKWAEAEAFLLRHHNWLAARLHR”, the “soluble fraction (log2)” value was -2.92.

Consider “HMAKQEPTDNGYDIYKVTASVLNVRNGAGTSYAVAYQLSKEDYVEVVSIDKGWAKLKDGKYVSADWITLYK”, for which the “soluble fraction (log2)” value is -2.53.

Turning to “HMAKRINVKLIMELSAGGLTQNEIASSRHFSKTSVNLVLKTARELNVSAADLREMSPEEAYRLFFPEK”, the “soluble fraction (log2)” value is -1.66.

Take “HMAKRKTEKTSVLEEIDGVGKARARALLARFGGLSGVKAASPEELRTVRGITPEIAENIRRYFQ”: the “soluble fraction (log2)” value is -0.0813.

Regarding “HMAKRMRNPNGYGSIVKLSGNRRNPYMVKVNTHMDERYYPVYDILGYYPTWADASIALAKYNDDPYNVS”, the “soluble fraction (log2)” value was -0.777.

For the sequence “HMAKRQATIVYEGTNVRSGPSTSSAIVKRTGKGESYPIVSTKGDWYEIKLSNGDSAYVASWVVQTVD”, the “soluble fraction (log2)” value was -0.728.

Regarding “HMAKRYFVTTGVRVRTKPDTANSEVLTVLDEGSEIDYKGDYNNEWVKINYNGQEAYIAKQYVRSEE”, the “soluble fraction (log2)” value is -0.382.

For “HMAKSDLNYLDFKSKLEAGEIAKASVIRNEDTFKVTLQNGEVYNVTSPDYEDFRKELLEAGVDIQVSK”, the “soluble fraction (log2)” value came out at 0.116.

With “HMAKSMRHLIVPSRETSLWRDKLSTNGWLSKGYGIHNLDDYRGIPLNETAPKIIEGLEITELEPIS”, the “soluble fraction (log2)” value amounted to 0.124.

With “HMAKTALEQAQAMVAAYVAAEQQILLGKEVRMGGPGIDRWLRFEDLQEVRAGRKEWESTVTRLQNTAA”, the “soluble fraction (log2)” value was -1.27.

On to “HMAKTGMDALVGRRVVLTKAIAGEGEGLVAVDGDVWRATSPAGSAIPKGTEVRITGYRSIVLEVEPI”, for which the “soluble fraction (log2)” value is -1.87.

In the case of “HMAKYEVVAKDIISRIKQNEFETTLKLPTEDEMIEYYQVSRNTVRSALKLLTSQGIIFSRQGSGFYIRQRS”, the “soluble fraction (log2)” value is -1.95.

As for “HMALALSGVDLNRNRLTISWQTSKGVSYRVQRSSDLQSWTDVGAERLGNGNRLSHTQALNTESAFLRVII”, the “soluble fraction (log2)” value was -0.0203.

In the case of “HMALEGTLARVSVRIPESGVGEIIFSLGGVRRSEAARSVSGRAIPRGTEVVILSYERGIATVQPYEELLTN”, the “soluble fraction (log2)” value was -1.64.

Turning to “HMALEVPGIAKDKIYRIFGQLYERQQKWEDAIDYYNRAVFFTLSGTDMILYQEDLSRVKQKISL”, the “soluble fraction (log2)” value was -0.283.

On to “HMALKRVAPQGEDKLSAQLDGVEFDKLIPWLGMLEHDHRIAIVNLSIDRANATGLVNARVIL”, for which the “soluble fraction (log2)” value stood at 0.115.

Take “HMALKSGVIAHAVDDAVMRGLNVFTVSDDGSIVSMKDNDIVLGKDGKSPYSVSEWLEELKPNVPHWFG”: the “soluble fraction (log2)” value is -0.166.

For “HMALKSYEDMVGKTGVAYTVLRPSGKVIINDELFDATARSGMIEKGNEVIIYDYKNAQLIVEK”, the “soluble fraction (log2)” value stood at 0.263.

As to “HMALPASLSPREREIVSLISQGKTNSEIASLLYISVPTVKTHISNIFQKTGVSNRTSLLNRLRMS”, the “soluble fraction (log2)” value was -0.996.

For the sequence “HMALPHEIKQKWLEEIMTMLRSSDSVTINKVYLHFPENKSHWVDEILTDLSNTHMITRQHDFIRLKN”, the “soluble fraction (log2)” value is -0.964.

For “HMALQDKYKQLVDTATASGVANLQVREQDGVLYIDGEAPSGSVKDQLWDIYGKIDPNFLSGDVVMNINV”, the “soluble fraction (log2)” value is -0.148.

In the case of “HMALQLPFSFAKRHKVLVESAHEPVKVYHTPSTDFAVFAEVRRFLDQTFVLEEIAENRFEELLTSSFQRD”, the “soluble fraction (log2)” value is -1.1.

Consider “HMALSETIYRLRTEHGLSQGDLAAELDVSRQSISKWETGSSVPELDKLVAMSRLFGVSLDELVLGE”, for which the “soluble fraction (log2)” value was -0.85.

Turning to “HMALSLPDDMTIVRKDGSSLEVRLKSRTVTEIHFERISDSETFQFSIDQLDETTRELVEQYPVM”, the “soluble fraction (log2)” value was -0.31.

Consider “HMALTAEVLRSLIKHHGLGQSIQRTAKAVGLSASTVKKYFDRIAAANLTWQEAKSRTQEELIASLQPT”, for which the “soluble fraction (log2)” value is -0.813.

Take “HMALTARDLGLTHRQADVLHLVLQGKPVKLIARDLGLAEGTVKSHVSAVLRALNVTTRTQAIVAAGRLGLM”: the “soluble fraction (log2)” value was -2.18.

Turning to “HMAMDITLPLAEVRRQSLEQIERQYLNELMSKHLGRINRAAEAAGITTRQLHKLLTKYSIRKEDFK”, the “soluble fraction (log2)” value was -1.25.

As for “HMAMESDELETLVDQLIVDHPDEWSRFVGGDDGDRKKMQGFFTGQIMKATKGQADGRAVAQLLGQKSA”, the “soluble fraction (log2)” value came to 0.0717.

“HMAMLSKREAEILKLTAKGHSSTDIAQRLTISVNTVEFHRRRIMQKLNAANVAEAVGKAAELGLFF”: the “soluble fraction (log2)” value is -2.47.

In the case of “HMAMSAGEVVERIREHVGHPATIKELMRVLAIPNEERYRFRRRIKQLVEAGELIRIRGNRYGLADR”, the “soluble fraction (log2)” value is -2.83.
